Measurements published in article PMC10533390, “The interface of condensates of the hnRNPA1 low-complexity domain promotes formation of amyloid fibrils” (Nature Chemistry, 2023).

B1: hnRNPA1-B low-complexity domain (domain or fragment, UniProt P09651 186-372, looked up)
chain: MASASSSQRGRSGSGNFGGGRGGGFGGNDNFGRGGNFSGRGGFGGSRGGGGYGGSGDGYNGFGNDGGYGGGGPGYSGGSRGYGSGGQGYGNQGSGYGGSGSYDSYNNGGGGGFGGGSGSNFGGGGSYNDFGNYNNQSSNFGPMKGGNFGGRSSGPYGGGGQYFAKPRNQGGYGGSSSSSSYGSGRRF
notes: C-terminal low-complexity domain of heterogeneous nuclear ribonucleoprotein A1, splicing variant hnRNPA1-B (52 amino acids more than hnRNPA1-A); 19.8 kDa; also called B-LCD; hnRNPA1–B-LCD; source: E. coli BL21-Gold (DE3), purified (Ni-NTA, SEC on Superdex 75 in 2 M urea)
B2: hnRNPA1-A low-complexity domain (domain or fragment, UniProt P09651 186-250, looked up)
chain: MASASSSQRGRSGSGNFGGGRGGGFGGNDNFGRGGNFSGRGGFGGSRGGGGYGGSGDGYNGFGNDGSNFGGGGSYNDFGNYNNQSSNFGPMKGGNFGGRSSGPYGGGGQYFAKPRNQGGYGGSSSSSSYGSGRRF
notes: 15.2 kDa; The two stretches joined are the natural splice variant; also called A-LCD; hnRNPA1–A-LCD; source: E. coli BL21-Gold (DE3), purified (Ni-NTA, SEC on Superdex 75 in 8 M urea)

Target: the molecule itself
Assay: ThT fluorescence kinetics + AFM + TEM + Raman spectroscopy (amyloid fibril formation); self-association into amyloid fibrils starting from condensates; 30 µM protein in 50 mM Tris pH 7.5, 200 mM NaCl, 2 mM β-mercaptoethanol, 20 µM ThT, 384-well plates; re-scan confocal images after ~70 h

Protein	binding result
B1	binds
B2	binds
